We go through six molecules from patent publication US20130266574A1 (Regeneron, published 2013).

Sequences and labels used below:
T1: cynomolgus monkey ANGPTL4 N-terminal region (amino acid residues 1-130 of SEQ ID NO:490) with a C-terminal … (cynomolgus monkey (Macaca fascicularis), UniProt Q9BY76 26-130 (human entry))
T1 construct: also called MfANGPTL4(1-130)-His
T1 chain: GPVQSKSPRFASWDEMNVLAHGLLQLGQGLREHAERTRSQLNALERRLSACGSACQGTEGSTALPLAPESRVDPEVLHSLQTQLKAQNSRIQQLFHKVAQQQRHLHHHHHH

T2: bovine LPL (bovine, UniProt P11151 29-478)
T2 sequence (looked up): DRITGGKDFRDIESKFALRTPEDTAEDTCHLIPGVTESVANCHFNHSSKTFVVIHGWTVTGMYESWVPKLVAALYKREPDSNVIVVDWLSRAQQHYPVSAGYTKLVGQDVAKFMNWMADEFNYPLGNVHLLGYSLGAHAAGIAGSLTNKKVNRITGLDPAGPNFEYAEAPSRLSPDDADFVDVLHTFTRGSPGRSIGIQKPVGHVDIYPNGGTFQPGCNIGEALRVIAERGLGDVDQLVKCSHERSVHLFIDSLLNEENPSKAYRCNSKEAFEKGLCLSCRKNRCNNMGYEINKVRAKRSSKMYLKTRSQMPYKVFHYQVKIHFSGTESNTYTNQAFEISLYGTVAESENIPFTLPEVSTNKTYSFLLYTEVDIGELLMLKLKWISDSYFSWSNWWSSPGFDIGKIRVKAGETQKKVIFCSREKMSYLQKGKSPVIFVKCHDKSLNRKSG

B1: H4H284P (antibody, human IgG4 S228P, V domains shown)
VH: QVQLVESGGGVVQPGRSLRLSCAASGFTFSSYGMHWVRQAPGKGLEWMAVISFDGGNKNNADSVKGRFTISRDNSKNTLYLQMNSLRAEDTAVYYCAKEGDRSGHPYFYYYGLDVWGQGTTVTVSA
VL: DIQLTQSPSFLSASVGDRVTITCWASQGISSYLAWYQQKPGKAPKLLIYAASTLQSGVPSRFSGSGSETEFTLTISSLQPEDFATYYCQQLHSYPLTFGGGTKVEIK
notes: IgG4 version of H1H284P (constant region replaced)
B2: H1H284P Fab fragment (Fab, V domains shown)
VH: QVQLVESGGGVVQPGRSLRLSCAASGFTFSSYGMHWVRQAPGKGLEWMAVISFDGGNKNNADSVKGRFTISRDNSKNTLYLQMNSLRAEDTAVYYCAKEGDRSGHPYFYYYGLDVWGQGTTVTVS
VL: B1 VL
notes: Fab made by papain digestion of H1H284P (IgG1); also called H1H284 Fab
B3: H1H268P Fab fragment (Fab, V domains shown)
VH: QVQLQESGAGLLKPSETLSLTCTVYGGSFSIHHWTWIRHPPGKGLEWIGEINHRGSTNYNPSLKSRVTISIDTSKNQFSLKLSAVTAADTAVYYCARGLRFLDWLSSYFDYWGQGTLVTVSS
VL: DIQMTQSPSSLSASVGDRVTITCRASQGISDYLAWYQQKPGKVPNLLIYAASALQSGVPSRFSGSGSGTDFTLTISSLQPEDVATYYCQNYNTAPLTFGGGTKVEIK
notes: Fab made by papain digestion of H1H268P (IgG1); also called H1H268 Fab
B4: mANGPTL4-His [R26-S410 of mANGPTL4 (SEQ ID NO: 478) fused with an AS linker to a C-terminal 6-histidine tag] (ligand)
chain: RPAQPEPPRFASWDEMNLLAHGLLQLGHGLREHVERTRGQLGALERRMAACGNACQGPKGKDAPFKDSEDRVPEGQTPETLQSLQTQLKAQNSKIQQLFQKVAQQQRYLSKQNLRIQNLQSQIDLLAPTHLDNGVDKTSRGKRLPKMTQLIGLTPNATHLHRPPRDCQELFQEGERHSGLFQIQPLGSPPFLVNCEMTSDGGWTVIQRRLNGSVDFNQSWEAYKDGFGDPQGEFWLGLEKMHSITGNRGSQLAVQLQDWDGNAKLLQFPIHLGGEDTAYSLQLTEPTANELGATNVSPNGLSLPFSTWDQDHDLRGDLNCAKSLSGGWWFGTCSHSNLNGQYFHSIPRQRQERKKGIFWKTWKGRYYPLQATTLLIQPMEATAASASHHHHHH
B5: amino acid residues 26-148 of human ANGPTL4 fused in-line to mouse IgG2a (hANGPTL4-mFc) (Fc fusion)
chain: GPVQSKSPRFASWDEMNVLAHGLLQLGQGLREHAERTRSQLSALERRLSACGSACQGTEGSTDLPLAPESRVDPEVLHSLQTQLKAQNSRIQQLFHKVAQQQRHLEKQHLRIQHLQSQFGLLDPGSLEFALERNSGEPRGPTIKPCPPCKCPAPNLLGGPSVFIFPPKIKDVLMISLSPIVTCVVVDVSEDDPDVQISWFVNNVEVHTAQTQTHREDYNSTLRVVSALPIQHQDWMSGKEFKCKVNNKDLPAPIERTISKPKGSVRAPQVYVLPPPEEEMTKKQVTLTCMVTDFMPEDIYVEWTNNGKTELNYKNTEPVLDSDGSYFMYSKLRVEKKNWVERNSYSCSVVHEGLHNHHTTKSFSRTPGK
B6: full-length hANGPTL4 (amino acid residues 26-406 of SEQ ID NO:476) with a C-terminal hexa-histidine tag (ligand)
chain: GPVQSKSPRFASWDEMNVLAHGLLQLGQGLREHAERTRSQLSALERRLSACGSACQGTEGSTDLPLAPESRVDPEVLHSLQTQLKAQNSRIQQLFHKVAQQQRHLEKQHLRIQHLQSQFGLLDHKHLDHEVAKPARRKRLPEMAQPVDPAHNVSRLHRLPRDCQELFQVGERQSGLFEIQPQGSPPFLVNCKMTSDGGWTVIQRRHDGSVDFNRPWEAYKAGFGDPHGEFWLGLEKVHSITGDRNSRLAVQLRDWDGNAELLQFSVHLGGEDTAYSLQLTAPVAGQLGATTVPPSGLSVPFSTWDQDHDLRRDKNCAKSLSGGWWFGTCSHSNLNGQYFRSIPQQRQKLKKGIFWKTWRGRYYPLQATTMLIQPMAAEAASHHHHHH

In assay [1] the target is B5. Put plainly: cell-based or functional assay.
Assay [2] has as its target B6. The assay can be described thus: cell-based or functional assay.
Assay [3] addresses B5. Put plainly: SPR (Biacore), pH 7.4, 25° C., protocol of Example 3. The method, then:
Antigen-antibody binding and dissociation were monitored in real time at 25° C. and 37° C. Kinetic analysis was performed to calculate KD and half-life of antigen/antibody complex dissociation.
Furthermore, a single amino acid substitution was introduced in the framework region 1 of H1H268P (SEQ ID NO:42) to form H4H268P2 (SEQ ID NO:487) in the IgG4 version.

In assay [4] the target is B6. Put plainly: SPR (Biacore), 25° C., pH 7.2, antigen amino-coupled 450 RU. The method, then:
(§1) Kinetic analysis was performed to measure kₐ and kd, and KD values and half-life of antigen/antibody complex dissociation were calculated. The results are shown in Table 4 (H1H268P) and Table 5 (H1H284P).

Assay [5] has as its target B5. The assay can be described thus: SPR (Biacore), 25° C., pH 7.2, antigen captured by anti-mFc. As for the experimental part: as §1
Assay [6] concerns the target B6. The assay can be described thus: SPR (Biacore), 25° C., pH 5.75, antigen amino-coupled 450 RU. As for the experimental part:
as §1

Assay [7] deals with B5. The assay can be described thus: SPR (Biacore), 25° C., pH 5.75, antigen captured by anti-mFc. As for the experimental part: as §1
For assay [8], the target named is T1, cynomolgus monkey ANGPTL4 N-terminal …. Put plainly: SPR (Biacore), 25° C., pH 7.2, antigen amino-coupled 1,028 RU. As for the experimental part: as §1
Assay [9] has the same target. The assay can be described thus: SPR (Biacore), 25° C., pH 5.75, antigen amino-coupled 1,028 RU. The method, then:
as §1

The target is the same in assay [10]. The assay can be described thus: SPR (Biacore), 25° C., pH 5.75, antigen amino-coupled 1,028 RU; Fab, not full mAb; pH 5.75. As for the experimental part: as §1
Assay [11] deals with T2, bovine LPL. The assay can be described thus: cell-based or functional assay.
Assay [12] concerns the target T2, bovine LPL. Put plainly: cell-based or functional assay. The source holds these as a separate data set.

Consider B1, for which the “IC50 (nM) in the LPL inhibition assay, constant ANGPTL4 2 nM” value in assay [1] was 1.69 nM. Moreover, the “IC50 (nM) in the LPL inhibition assay, constant ANGPTL4 10 nM” value in assay [2] was found to be 1.19 nM. In assay [3], this molecule returned a Kd of 0.143 nM and a t1/2 of 205 min.
B2: the Kd in assay [4] amounted to 0.31 nM; in assay [5] it was 0.823 nM; in assay [6], 1.44 nM; in assay [7], 3.4 nM; in assay [8] it was 10.1 nM; in assay [10], 8.54 nM. The koff in [4] turned out to be 0.000344 s⁻¹; in assay [5] it was 0.000202 s⁻¹; in assay [6] it was 0.00173 s⁻¹; in assay [7], 0.0016 s⁻¹; in assay [8], 0.00313 s⁻¹; in assay [9], 0.00619 s⁻¹. Further, the kon in assay [4] came out at 1.11e+06 M⁻¹ s⁻¹; in assay [5], 245000 M⁻¹ s⁻¹; in [6] it was 1.21e+06 M⁻¹ s⁻¹; in assay [7], 472000 M⁻¹ s⁻¹; in [8], 310000 M⁻¹ s⁻¹; in [9], 724000 M⁻¹ s⁻¹. Further, the t1/2 in assay [4] came out at 34 min; in assay [5] it was 57 min; in assay [6], 7 min; in [7], 7 min; in assay [8] it was 4 min; in assay [9], 2 min.
As for B3, the Kd came to 16.3 nM in [4]; 2 nM in [5]; 14.8 nM in [6]; 17.5 nM in [7]; 6.42 nM in assay [8]; 13.8 nM in assay [10]. Further, the koff was found to be 0.0118 s⁻¹ in assay [4]; 0.000601 s⁻¹ in assay [5]; 0.00657 s⁻¹ in assay [6]; 0.00304 s⁻¹ in [7]; 0.00171 s⁻¹ in assay [8]; 0.00432 s⁻¹ in [9]. Besides, the kon in assay [4] amounted to 726000 M⁻¹ s⁻¹; in [5] it was 300000 M⁻¹ s⁻¹; in [6], 444000 M⁻¹ s⁻¹; in assay [7] it was 174000 M⁻¹ s⁻¹; in assay [8], 267000 M⁻¹ s⁻¹; in assay [9], 312000 M⁻¹ s⁻¹. The t1/2 in assay [4] came to 1 min; in assay [5], 19 min; in assay [6], 2 min; in assay [7] it was 4 min; in assay [8], 7 min; in [9] it was 3 min.
Take B4: the “EC50 (nM) of the ANGPTL4 protein in the LPL assay” value (from here on “EC50 (nM) … in the LPL assay”) in the assay with bovine LPL [11] stood at 0.63 nM.
Regarding B5, the “EC50 (nM) … in the LPL assay” value in the assay with bovine LPL [11] worked out at 0.5 nM. Also, in the assay with bovine LPL [12], the “EC50 (nM) of the ANGPTL4 protein in the LPL inhibition assay” value turned out to be 0.29 nM.
For B6, the “EC50 (nM) … in the LPL assay” value with bovine LPL [11] stood at 6 nM. For the same molecule, the “EC50 (nM) of the ANGPTL4 protein in the LPL inhibition assay” value with bovine LPL [12] was 4.54 nM.
